Results published in patent publication US20240173442A1, “COMBINATION THERAPY” (Hoffmann-La Roche Inc., priority 2021, published 2024).

What was measured:
[1] = tested on: SC BxPC3 tumors; assay: Protocol 185: biodistribution of 212Pb-DOTAM after CEA-split-DOTAM-VH/VL targeting T84.66 or CH1A1A; format: in vivo, SCID mice; details: 6 hours after injection
Protocol: (§1) The in vivo distribution of ^212Pb-DOTAM was assessed 6 hours after the radioactive injection.
(§2) Solid xenografts were established in each SCID mouse on study day 0 by SC injection of 5×10^6 cells (passage 27) in RPMI/Matrigel into the right flank. Twenty-two days after tumor cell injection, mice were sorted into experimental groups with an average tumor volume of 224 mm^3. The ^212Pb-DOTAM was injected on day 28 after inoculation, at which point the average tumor volume had reached 385 mm^3.
All mice were sacrificed and necropsied 6 hours after injection of ^212Pb-DOTAM, and the following organs and tissues harvested for measurement of radioactive content: blood, skin, spleen, pancreas, kidneys, liver, muscle, tail, and tumor. Collected tumors were split in two pieces: one was measured for radioactive content, and the other put in a cryomold containing Tissue-Tek® optimum cutting temperature (OCT) embedding medium, and put on dry ice for rapid freezing. Frozen samples in OCT were maintained at −80° C. before cryosectioning, immunofluorescence staining, and analysis using a Zeiss Axio Scope.A1 modular microscope.

[2] = tested on: SC BxPC3 tumors; assay: Protocol 189: biodistribution of 212Pb-DOTAM after bi-paratopic (T84.66 and CH1A1A) CEA-split-DOTAM-VH/VL pairs; format: in vivo, SCID mice; details: 6 hours after injection
Protocol: This bi-paratopic combination precludes formation of the full Pb-DOTAM binder on soluble CEA that only expresses one of the two epitopes (e.g. T84.66), thereby mitigating potential adverse effects thereof, such as increased circulating radioactivity and associated radiation-induced toxicity, and decreased efficacy from competition with off-tumor targets.
as §1
as §2, with “31)” for “27)”, “Fourteen” for “Twenty-two”, “343” for “224”, “22” for “28”, “inoculation;” for “inoculation, at which point”, “557 mm^3 on day 21.” for “385 mm^3.”
All mice were sacrificed and necropsied 6 hours after injection of ^212Pb-DOTAM, and the following organs and tissues harvested for measurement of radioactive content: blood, skin, spleen, pancreas, kidneys, liver, muscle, tail, and tumor.

B1: CH1A1A: CEA-split-DOTAM-VH/VL pair targeting CH1A1A: P1AF0171 (VH-AST) plus P1AD8592 (VL) (antibody, V domains shown)
VH: QVQLVQSGAEVKKPGASVKVSCKASGYTFTEFGMNWVRQAPGQGLEWMGWINTKTGEATYVEEFKGRVTFTTDTSTSTAYMELRSLRSDDTAVYYCARWDFAYYVEAMDYWGQGTTVTVSS
VL: DIQMTQSPSSLSASVGDRVTITCKASAAVGTYVAWYQQKPGKAPKLLIYSASYRKRGVPSRFSGSGSGTDFTLTISSLQPEDFATYYCHQYYTYPLFTFGQGTKLEIK
modifications: split DOTAM-binding domains and constant regions lack entries
tumor accumulation of ^212Pb [1]: 40 % ID/g | tumor accumulation of ^212Pb [2]: 37 % ID/g
